Reference: PMC3182996

Columns and labels:
[1] = molecular target: Aβ^40Arc fibrils (pre-formed fibrils of Aβ1–40 Glu22Gly); assay: SPR; co-injection: 2 µM Aβ injected for 30 s over immobilised pre-formed fibrils at 20 µl/min in PBS at 25°C, at once followed by 0–400 nM Aβ; the concentration that gives a plateau (critical concentration) is taken as the binding constant
[2] = molecular target: Aβ^40WT fibrils (pre-formed fibrils of wild type Aβ1–40) (UniProt P05067); assay: as above

Substance: Aβ1–40 Glu22Gly (Arctic variant), monomeric (peptide)
- Kd [1]: 100 nM
- Kd [2]: 50 nM
